This note sets out measurements from patent publication US20220073604A1 (ARGENX BVBA, published 2022).

Substitutions are numbered along the chain they refer to. Values joined by “and” are separate entries in the source; they are usually repeats but may differ in a detail not shown here. Equal entries are not always repeated.

Assay [1] concerns the target T1, eukaryotically produced human IL-6 (human, UniProt P05231 30-212).
T1 construct: also called eukIL-6; Euk IL-6
Kind of assay: SPR; periplasmic fraction. (Surface plasmon resonance follows binding to a sensor surface in real time, without labels.)

In assay [2] the target is T2, bacterially produced human IL-6 (human, UniProt P05231 30-212).
T2 construct: also called bactIL-6; prokaryotic IL-6
Put plainly: SPR; periplasmic fraction.

Assay [3] concerns the target T3, cynomolgus monkey IL-6 (cynomolgus monkey, UniProt P79341 28-212, limits assumed).
T3 construct: also called HIS-cyIL-6
Kind of assay: SPR; periplasmic fraction.

For assay [4], the target named is T2, bacterially produced human IL-6. Put plainly: SPR; purified Fab over biotinylated IL-6 on streptavidin chip.
Experimental: (§1) From the washing phase the off-rate (kd) was determined, while from the injection phase the on-rate (ka) was calculated using the concentration and off-rate as parameters.
The target in assay [5] is T1, eukaryotically produced human IL-6. Kind of assay: SPR; purified Fab; IL-6 coated on CM5 chip.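 Also: dissociation rate taken from the wash phase, association rate fitted over the injection phase with analyte concentration and dissociation rate as inputs.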
Experimental: as §1
Assay [6] concerns the target T2, bacterially produced human IL-6. Put plainly: SPR; purified Fab; IL-6 coated on CM5 chip.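 Also: dissociation rate taken from the wash phase, association rate fitted over the injection phase with analyte concentration and dissociation rate as inputs.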
Experimental: as §1
The target is the same in assay [7]. Kind of assay: SPR; periplasmic fraction; against parental 29B11.
Assay [8] concerns the target T3, cynomolgus monkey IL-6. Kind of assay: SPR; periplasmic fraction; against parental 29B11.
Assay [9] concerns the target T1, eukaryotically produced human IL-6. Kind of assay: SPR; purified Fab.
Assay [10] has as its target T2, bacterially produced human IL-6. Put plainly: SPR; purified Fab.
In assay [11] the target is T3, cynomolgus monkey IL-6. Put plainly: SPR; purified Fab.

B1: Fab 29B11 (Fab, V domains shown)
VH: EVQLVESGGGLVQPGGSLRLSCAASGFTFSSYAMSWVRQAPGKGLEWVSRISSGGISTYYADSVKGRFTISRDNAKNTLYLQMNSLKPEDTAVYYCVRYAWGVQWAFDFWGQGTQVTVSS
VL: QSVLTQPPSVSGSPGQTVTISCAGTSEDVGYGNYVSWYQQLPGMAPKLLIYDVNKRASGIADRFSGSKSGNTASLTISGLQSEDEADYYCASYRRTIDNIFGGGTHLTVLG
notes: Fab
B1: the Ka in [1] came out at 1.83e+09 M⁻¹; in assay [2], 1.91e+09 M⁻¹; with cynomolgus monkey IL-6 [3], 1.51e+08 M⁻¹; in assay [4], 4.36e+07 M⁻¹. For the same molecule, the Kd in assay [1] worked out at 0.546 nM; in assay [2], 0.524 nM; with cynomolgus monkey IL-6 [3], 6.61 nM; in assay [4] it was 22.9 nM; in assay [5] it was 0.51 nM; in [6], 0.93 nM. The koff in [1] turned out to be 0.000102 s⁻¹; in assay [2], 0.000131 s⁻¹; with cynomolgus monkey IL-6 [3] it was 0.000746 s⁻¹; in assay [4] it was 0.00298 s⁻¹; in assay [5] it was 0.0001 s⁻¹; in [6] it was 0.00022 s⁻¹. Also, the kon worked out at 187000 M⁻¹ s⁻¹ in assay [1], 251000 M⁻¹ s⁻¹ in assay [2], 113000 M⁻¹ s⁻¹ with cynomolgus monkey IL-6 [3] and 130000 M⁻¹ s⁻¹ in [4].

B2: Fab 48C10 (Fab, V domains shown)
VH: B1 VH
VL: AQSVLTQPPSVSGSPGQTVTISCAGTSEDVGYGNYVSWYQQLPGMAPKLLIYDVNKRASGIADRFSGSKSGNTASLTISGLQSEDEADYYCASYRRTIDNIFGGGTHLTVLG
notes: VL-shuffled Fab of 29B11, periplasmic fraction
Turning to B2, in [2], the Ka was 1.43e+09 M⁻¹, the Kd amounted to 0.701 nM, the koff is 0.000184 s⁻¹ and the kon was found to be 262000 M⁻¹ s⁻¹. For the same molecule, in the assay with cynomolgus monkey IL-6 [3], the Ka is 4.1e+08 M⁻¹, the dissociation constant Kd was 2.44 nM, the koff turned out to be 0.00044 s⁻¹ and the kon was 180000 M⁻¹ s⁻¹. Moreover, in assay [7], the “fold improvement KD” value worked out at 0.75 fold, the fold improvement ka was found to be 1.04 fold and the fold improvement kd came out at 0.71 fold. In the assay with cynomolgus monkey IL-6 [8], the “fold improvement KD” value is 2.71 fold, the fold improvement ka is 1.59 fold and the fold improvement kd was found to be 1.7 fold.

B3: Fab 20A4 (Fab, V domains shown)
VH: EVQLQESGPGLVKPSQTLSLTCTVSGGSITTRYYAWSWIRQPPGKGLEWMGVIDYDGDTYYSPSLKSRTSISWDTSKNQFSLQLSSVTPEDTAVYYCARDPDVVTGFHYDYWGQGTQVTVSS
VL: LNFMLTQPPSVSGTLGKTVTISCAGTSSDIGGYNYVSWYQQLPGTAPKLLIHRVSTRASGIPDRFSGSKSGNTASLTISGLRSEDEANYYCASYRNFNNAVFGGGTQLTVLG
notes: Fab
B3 gave a Ka in assay [4] of 1.72e+08 M⁻¹. Besides, the dissociation constant (Kd) in [4] stood at 5.82 nM; in assay [5] it was 0.81 nM; in assay [6], 2 nM; in [9], 0.81 nM; in assay [10] it was 2 nM; with cynomolgus monkey IL-6 [11], 1.7 nM. Also, the koff came to 0.00168 s⁻¹ in [4]; 0.0003 s⁻¹ in [5]; 0.00062 s⁻¹ in [6]; 0.0003 s⁻¹ in [9]; 0.00062 s⁻¹ in assay [10]; 0.00075 s⁻¹ in the assay with cynomolgus monkey IL-6 [11]. The molecule further gave a kon in assay [4] of 288000 M⁻¹ s⁻¹.

B4: Fab 24E9 (Fab, V domains shown)
VH: EVQLVESGGGLVQPGGSLRLSCAASGFTFSTYAMSWVRQAPGKGPEWVSRISSGGGSTNYADSVKGRFTISRDNAKKTLYLQMKSLKPEDTAVYYCANRAGWGMGDYWGQGTQVTVSS
VL: QTVVTQEPSLSVSPGGTVTLTCGLSSGSVTASNYPGWFQQTPGQAPRALIYSTNDRHSGVPSRFSGSISGNKAALTITGAQPEDEADYYCALDIGDITEFGGGTHLTVLG
notes: Fab
In [4], B4 yielded a Ka of 8.38e+08 M⁻¹, a dissociation constant Kd of 1.19 nM, a koff of 0.000139 s⁻¹ and a kon of 117000 M⁻¹ s⁻¹. In assay [5], the equilibrium dissociation constant (Kd) is 0.71 nM and the koff is 0.00024 s⁻¹. In [6], binding was put at a Kd of 0.93 nM and the koff was 0.00029 s⁻¹.

B5: Fab 24C9 (Fab, V domains shown)
VH: QVQLVESGGGLVQPGGSLRLSCAASGFTFSSYRMYWVRQPPGKGLEWVSAISAGGGSTYYGDSVKGRFTISRDNAKNTVYLQMNSLKPEDTALYYCKKSTWADGESDYWGQGTQVTVSS
VL: B4 VL
notes: Fab
In assay [4], B5 gave a Ka of 1.51e+09 M⁻¹, a Kd of 0.661 nM, a koff of 8.77e-05 s⁻¹ and an association rate constant (kon) of 133000 M⁻¹ s⁻¹. In [5], the affinity, expressed as Kd, was 1.7 nM and the koff worked out at 0.0003 s⁻¹. Moreover, in assay [6], the dissociation constant Kd worked out at 2.6 nM and the dissociation rate constant (koff) turned out to be 0.00037 s⁻¹.

B6: Fab 41E10/35B1 (Fab, V domains shown)
VH: EVQLQESGPGLVKPSQTLSLTCTVSGGSIATSYYAWSWIRQPPGKGLEWMGVIDYDGDTYYKPSLKSRTSISRDTSKNQFSLQLSSVTPEDTAVYYCARAGLGDSYYLGTYYAMDYWGKGTLVTVSS
VL: QAVLTQPPSMSGTLGKTLTISCNGTSSDIGSGNYVSWYQQLPGTTPKLLIEGVTTRVSGIPDRFSGSKSDNTASLTISGLQSEDEATYYCASYRETNNVVFGGGTHLTVLG
notes: VL-shuffled Fab of 17F10
In the case of B6, the Kd is 0.46 nM in assay [9], 0.54 nM in assay [10] and 0.34 nM with cynomolgus monkey IL-6 [11]. Moreover, the koff amounted to 0.00016 s⁻¹ in assay [9], 0.00016 s⁻¹ in assay [10] and 0.00012 s⁻¹ in the assay with cynomolgus monkey IL-6 [11].

B7: Fab 41B5/35C1 (Fab, V domains shown)
VH: B6 VH
VL: B6 VL with A2S, V3A, N33D, V57A, G66A, G111S
notes: VL-shuffled Fab of 17F10
Turning to B7, the Kd in assay [9] is 0.41 nM and 0.92 nM; in assay [10], 0.47 nM; in the assay with cynomolgus monkey IL-6 [11] it was 0.28 nM and 0.72 nM. Besides, the koff in assay [9] is 0.00012 s⁻¹ and 0.0002 s⁻¹; in assay [10], 0.00011 s⁻¹; in the assay with cynomolgus monkey IL-6 [11], 8.1e-05 s⁻¹ and 0.00017 s⁻¹.

B8: Fab 18C7 (Fab, V domains shown)
VH: EVQLVESGPGLVKPSQTLSLTCTVSGGSITASFDAWSWIRQPPGKGLEWMGVIAYDGSTYYSPSLKSRTSISRDTSKNQFSLQLSSVTPEDTAVYYCARKSSWLIGYGMDYWGKGTLVTVSS
VL: QAGLTQPSALSVTLGQTAKITCQGGSLGSSYAHWYQQKPGQAPVLVIYDDDSRPSGIPERFSGSSSGGRATLTISGAQAEDEGDYYCQSADSSGNAAVFGGGTHLTVLG
notes: Fab; also called 18C7 (090-423)
In assay [4], B8 came in with a Ka of 5.7e+07 M⁻¹. Moreover, the equilibrium dissociation constant (Kd) in assay [4] is 17.5 nM; in assay [5], 7.7 nM; in assay [6], 9.1 nM; in [9] it was 7.7 nM and 5.2 nM; in assay [10], 9.1 nM; in the assay with cynomolgus monkey IL-6 [11] it was 5.3 nM and 4.9 nM. For the same molecule, the koff is 0.00185 s⁻¹ in assay [4]; 0.001 s⁻¹ in assay [5]; 0.0011 s⁻¹ in assay [6]; 0.001 s⁻¹ and 0.00082 s⁻¹ in assay [9]; 0.0011 s⁻¹ in [10]; 0.00063 s⁻¹ and 0.00069 s⁻¹ with cynomolgus monkey IL-6 [11]. In assay [4], this molecule yielded a kon of 105000 M⁻¹ s⁻¹.

B9: Fab 18C11 (Fab, V domains shown)
VH: EVQLVESGGGLVQPGGSLRLSCAASGFTFSSYAMSWVRQAPGKGLEWVSAINSGGGSTSYADSVKGRFTISRDNAKNTLYLQMNSLKPEDTAVYYCAKEGDTGWKDPMYDYWGQGTQVTVSS
VL: B8 VL with A2S, G3V, L4V, S26G, G28R
notes: Fab
On to B9, for which, in [4], the Ka was 7.05e+07 M⁻¹, binding was characterised by a dissociation constant (Kd) of 14.2 nM, the koff worked out at 0.000784 s⁻¹ and the kon was found to be 55200 M⁻¹ s⁻¹. In assay [9], this molecule had a Kd of 2.9 nM and a koff of 0.00076 s⁻¹. For the same molecule, in the assay with cynomolgus monkey IL-6 [11], the Kd is 3.4 nM and the koff was determined as 0.00085 s⁻¹.

B10: Fab 18C9 (Fab, V domains shown)
VH: B9 VH with S31R, Y32N, D101Y
VL: LNFMLTQPSALSVTLGQTAKITCQGGSLGSRYAHWYQQKPGQAPVLVIYDDDSRPSGIPERFSGSSSGGRATLTISGAQAEDDGDYYCQSADSSGNASVFGGGTHLTVLG
notes: Fab
In [4], B10 returned a Ka of 4.67e+07 M⁻¹, a Kd of 21.4 nM, a koff of 0.00119 s⁻¹ and a kon of 55600 M⁻¹ s⁻¹. In assay [5], this molecule yielded a Kd of 2.4 nM and a koff of 0.00021 s⁻¹. For the same molecule, in [6], the Kd came out at 4.9 nM and the off-rate (koff) amounted to 0.00036 s⁻¹.

B11: Fab 42H1/36A1 (Fab, V domains shown)
VH: B9 VH
VL: B10 VL with L1A, N2Q, F3S, M4A, S30T, D83E
notes: VL-shuffled Fab of 18C11
For B11, the figures for the Kd (in assay [9]; in assay [10]; with cynomolgus monkey IL-6 [11]) were 0.34 nM, 0.75 nM and 0.69 nM, respectively. Moreover, the koff in assay [9] amounted to 0.00011 s⁻¹; in assay [10], 0.00015 s⁻¹; with cynomolgus monkey IL-6 [11] it was 0.00015 s⁻¹.

A word on the Kd: it is the concentration at which binding is half-saturated. By koff is commonly meant the rate constant with which the complex falls apart. The kon is the rate constant with which the complex forms.
